Reference: patent US20170101466A1

Columns and labels:
[1] = biological target: soluble human BLyS (human) (UniProt Q9Y275); experiment: DELFIA competition, Eu-hBLyS binding to coated BCMA
[2] = biological target: soluble human BLyS (human) (UniProt Q9Y275); experiment: DELFIA competition, Eu-hBLyS binding to coated TACI
[3] = biological target: soluble mouse BLyS (mouse) (UniProt Q9WU72); experiment: DELFIA competition, Eu-mBLyS binding to coated BCMA
[4] = biological target: soluble mouse BLyS (mouse) (UniProt Q9WU72); experiment: DELFIA competition, Eu-mBLyS binding to coated TACI
[5] = biological target: soluble mouse BLyS (mouse) (UniProt Q9WU72); experiment: DELFIA competition, Eu-mBLyS binding to coated BR3
[6] = biological target: soluble human BLyS (human) (UniProt Q9Y275); experiment: DELFIA competition, Eu-hBLyS binding to coated BR3

IC50 [1] [nM]	IC50 [2] [nM]	IC50 [3] [nM]	IC50 [4] [nM]	IC50 [5] [nM]	IC50 [6] [nM]	Substance
< 0.0003	< 0.0003	0.0115	< 0.0003	0.147	0.0093	AMG623
0.112	0.0127	0.784	0.0158	0.515	0.159	TACI-Ig (Fc fusion)
